In paper doi:10.1101/2025.06.24.660003:

Target: human plasma glycoproteins
Assay: far-Western, overlay or dot blot; human or rat plasma diluted 1:10, boiled with LDS sample buffer and 50 mM DTT, separated on 3-8% polyacrylamide gradient gels, transferred to BioTraceNT; GST-SLBR 5 nM in DPBS with 1x Blocking Reagent, 90 min, room temperature; detected with anti-GST

How did the fold decrease in total binding against wild type turn out when “GST-tagged Siglec-like binding region of Hsa, V370F mutant (from UniProt A8AWU7 220-453) (domain or fragment)” was run?
Its fold decrease in total binding against wild type is 3 fold.
